In a protein production outcome set (Wang et al. 2014):

Assay: label from the status in PepcDB records

Sequence | protein production
MGVSPQVARWFDCDLRSVVDHGVDRLRFTWKLGDPVEAELPSEEPFWMVRRDRFDHFLVEQAANLGARIEDGAAVTAVSAEGDGWLVTVGDRAYRSRTLIAADGARGPLAQWLGFPSQKRRYAQACELDVPLPARPDSTAHFEFGLVRNGYIWVFPKSDGYSIGIGTFRGNDATDFRGLLETYLAGFGVSADLDRIVPHPLCVWDGSQPLHRGSALLVGEAASLTDPFTAEGIRPALLSGMRAAEAIDRAIAGDRNALAGYSRTIQQEWGDSMAWAKRISSVFYRVPNLGYQIGIKRPTAPQRMAQILVGELDYSDIATRVIRRLTTGFLPGMRLEHHHHHH | failed
MGVVLARGAFRERSMLTLPDFPLPDARGRFGPYGGRYVPETLIPALEELEAAYREAKKDPAFLEELDHYLRQFAGRPTPLYHAKRLSEYWGGAQVFLKREDLLHTGAHKINNTLGQALLARRMGKRRVIAETGAGQHGVSVATVAALFGLECVVYMGEEDVRRQALNVFRMKLLGAEVRPVAAGSRTLKDATNEAIRDWITNVRTTFYILGSVVGPHPYPMMVRDFQSVIGEEVKRQSLELFGRLPDALIAAVGGGSNAIGLFAPFAYLPEGRPKLIGVEAAGEGLSTGRHAASIGAGKRGVLHGSYMYLLYDHDGQITPAHSVSAGLDYPGVGPEHSYYADAGVAEYASVTDEEALEGFKLLARLEGIIPALESAHAIAYAAKVVPEMDKDQVVVINLSGRGDKDVTEVMRLLGGEL | not failed
MGWHFQQSVTMPSEWRTLALESDDSYNDFTVIMRRKLQENQVNVVNLEQNIPILRINKQITSDQVASIFKHGREAEKLLMLEVEATFRLANGESYPINAKVNRTFFDNARAALAKSEEREVIWNDMREQVARQLIVKIIALQNQIKRKLEHHHHHH | not failed
MGYCIIIPAYNAARTLPAVVREVLGLGMPCLVVDDGSTDGTSATVEGLGVHLLRHDGNRGKGAALRTGFEWALAHGYSGVVTLDADGQHDPTAIPLLAATARERNVDILIASRDTQFREMAGLRSVWNRFGVWCMRKRTGFTITDSQSGFRWYSARLLKGVSLEASGYHLEMEILMKAWRGGFAIDSLPVAARVADGRATSHFRPVRDTWNICMTFLRHMLEHHHHHH | not failed
MGYEGIIVVDVRDAEAYKECHIPTAISIPGNKINEDTTKRLSKEKVIITYCWGPACNGATKAAAKFAQLGFRVKELIGGIEYWRKENGEVEGTLGAKADLFWNMKKESLEHHHHHH | failed
MGYLKNHWWKRWIRRRGCKLAGGPASVGKRTTLVLEERVELGHLRIVPPRLEIGAYSYVRSGTDLSLVASIGRFCSIGSDCFIGQEKHTHPSDWVSSHPFQHTGTALRYEPALSYAEIGHDVWIGHSAMVMEGVKVGTGAIIATRAVVTRDVPPYAIVAGTPAQVIRYRHPPEIIEGLLASRWWELDSAFLTGLPLDR | failed
MGYQLSATLKGHDQDVRDVVAVDDSKVASVSRDGTVRLWSKDDQWLGTVVYTGQGFLNSVCYDSEKELLLFGGKDTMINGVPLFATSGEDPLYTLIGHQGNVCSLSFQDGVVISGSWDKTAKVWKEGSLVYNLQAHNASVWDAKVVSFSENKFLTASADKTIKLWQNDKVIKTFSGIHNDVVRHLAVVDDGHFISCSNDGLIKLVDMHTGDVLRTYEGHESFVYCIKLLPNGDIVSCGEDRTVRIWSKENGSLKQVITLPAISIWSVDCMSNGDIIVGSSDNLVRIFSQEKSRWASEDEINELSTQVEKSTISSKTIEFDESKLSPYEILQSPGRKEGQIVVVKSPQGTIEAHQFSNSSWKKVGDVVGAGATGNDKKIEFEGKTYDYVFDVDIEDGKPPLKLPINVSDNPYTAADNFLARYELPMSYRDQVVQFILKNTNGISLDQPNDNASSSAVSPSKTSVMKVLPVKQYLIMENYNPDTIFNGIVKINSNEKTFDDEILAQIGGALHDIDESWELLLSFANTIRSNWEIKTPAYDIVRLIVKKLPYSSDIKDYIEEGLGNKNITLTMLTVRILVNCFNNENWGVKLLESNQVYKSIFETIDTEFSQASAKQSQNLAIAVSTLIFNYSALVTKGNSDLELLPIVADAINTKYGPLEEYQECEEAAYRLTVAYGNLATVEPTLRQFANSVTWLANIKRSYGNVPRFKDIFDDLS | failed
MHCALLYSGGKDSTLAALLLDPFYDVTLVSGSFGVRDTDPAQESATAVGFDHVTVDLDPDVAHDAVKQMFDDGYPRNGIQRVHEHAVETVARADWVADADGLGTLDAVADGTRRDDRVPTVDRPLAQSIEDRFDVDYLAPLAGIGRGAIDAMAADRLVVESGPSAEIPKADYEVELRALLRKRYGEGAVADVFPEHTQSRVQGLR | failed
MHELIRDITLCILFAWMLGLLAHFSRQPLILAYLIAGFCIGPFGAGWVKSQESISVISELGLIFMLFMIGLEIDLKKIVRAGKVILFAAGGQLPGGCLLGVLFFAGIGLSLGGGHFDAVYLCIACALSSTVIIVKVLYEKRELDTLPGRITLGVLVLQDIFAILFLAVQPSLANLQVSVILLSIGRVAVLVAAALLVSRYVLPRLFHQIARRPELILLGALAWCFLVAETAERLSLSREMGALIAGVSLSTFPYALDVTAKVTTLRDFFITLFFVALGMTIPVPGLSVIGLALMIAAFTVVSRLVTTFTPLYLMKQGLRASLLPALNLAQISEFSLVVIQTGVTDNHIAAETANAASFAFVVLAVLSTFVMTRSDEIARWAIGPLKRIGLRDLDHGNGHAEEGHEGGHGEARRIVILGFFRAASALLAEIERQAPVLLEQITVVDFNPNVYQTLLSRGLHVIYGDISSADTLLHAGVGKSEMIILSVPDALLKGASNEKLVRHVRTLNPTAMIVATADLLSDVGELYEAGASYVTVTRLSDAHELFTVIEAAQAGLLADKRAELDLRLGERREVLP | failed
MHESRLLLVMHWTEILAVFSFAVSGLAEARRRRLDAVGAFIVAFLTAFGGGTLRDLLLDRRPFYWVEHEQYLLALFVMSLFANRVIRLVSQLVSDRVLIVADAVGLGLFGVLGTQLALDAGVPVFVSVMMGVITAAFGGLLRDVVCNEIPMLLRDNRPYATCAFLGCWLYVGLTHTSLQPSVAVVVATLAIVAGRLATLRWNITLPR | failed
MHHLILGYGYCGYYLAQELLGHHQQVTVVSRQLKKELELSKLQHISHDLEYPFHWSEPDSIIYYLIPPPSQGTCDTFLQQFLNQSSLNAKKIIYFGSSGVYGNHQGAWVDELSACIIDSPRQQRRLDAEQQWLAYCQQHNKELSLLRIAGIYGPNRIPADAAKSKIPIIKPTEAPFTNHIFVKDLALIAYLLGQKQTTSAVYNVADGNPTHMGELQQTVANALGIESASYESFEQAWEKASPMKREFMRASKRLKIDLLKTALGEDIQFTSLYDAVKQSL | failed
MHHQSVLHSGYFHPLLRSWQTAASTVSASNLIYPIFVTDVPDDVQPIASLPGVARYGVNQLEEMLRPLVEAGLRCVLIFGVPSRVPKDEQGSAADSEDSPTIEAVRLLRKTFPSLLVACDVCLCPYTSHGHCGLLSENGAFLSEESRQRLAEVALAYAKAGCQVVAPSDMMDGRVEAIKAALLKHGLGNRVSVMSYSAKFASCFYGPFRDAAQSSPAFGDRRCYQLPPGARGLALRAVARDIQEGADMLMVKPGLPYLDMVREVKDKHPELPLAVYQVSGEFAMLWHGAQAGAFDLRTAVLETMTAFRRAGADIIITYFAPQLLKWLKEE | failed
MHHWVQASSSDFSGTPPQARSGHTAVNVGKSMVVVFGGLVDKKFLSDIIVYDIENKLWFEPECTGSESEGQVGPTPRAFHVAITIDCHMFIFGGRSGGKRLGDFWVLDTDIWQWSELTSFGDLPTPRDFAAAAAIGSQKIVLCGGWDGKKWLSDVYVMDTMSLEWLELSVSGSLPPPRCGHTATMVEKRLLVFGGRGGGGPIMGDLWALKGLIDEERETPGWTQLKLPGQAPSSRCGHTVTSGGHYLLLFGGHGTGGWLSRYDVYYNDTIILDRVTAQWKRLPIGNEPPPPRAYHTMTCIGARHLLIGGFDGKLTFGDLWWLVPEDDPIAKRSSVPQVVNPPEIKESERELDKERGQDGFSIVDLQQKMGISVSSGLRLQIPEESEDQEFVELGTRLIEGDVVDERASMIQMAAQALRQHWKQSTPRTLQLKELGSLLRDYQRLVTRIFTTQSSLTSADFGLPGTKTFTFYHIKSSSELRINDISKLLEEYKTLVI | not failed
MHIKIDDLTGRQVVSLVNEHLHSMTLMSPPESIHALGLEKLRGPEITFWSAWEGDELAGCGALKELDTRHGEIKSMRTSASHLRKGVAKQVLQHIIEEAEKRGYERLSLETGSMASFEPARKLYESFGFQYCEPFADYGEDPNSVFMTKKLLEHHHHHH | not failed
